From patent US20140087995A1 (published 2014) come the findings set out here.

Numbered stars: 1 amine (or outer) side, 2 acyl side, 3 side chain; on linkers, the order of the positions; unused ones are H or OH. Bridge positions count the residues as written; N and C are the ends. Side chains are listed from the residue outwards. Ends that are not written are not given here. * marks the point of attachment. C20 diacid = O=C(O)CCCCCCCCCCCCCCCCCCC(=O)*; γGlu = O=C(O)[C@H](CCC(=O)[*:2])N[*:1]; AEEA = NCCOCCOCC(=O)O

Experiment [1] deals with T1, human calcitonin receptor (human, UniProt P30988 25-474).
T1 construct: whole, on cells; Assayed as cell membranes of BHK tk'ts 13 cells stably transfected with the human calcitonin receptor (Assay VII); also called hCTR; hCT
T1 sequence (looked up): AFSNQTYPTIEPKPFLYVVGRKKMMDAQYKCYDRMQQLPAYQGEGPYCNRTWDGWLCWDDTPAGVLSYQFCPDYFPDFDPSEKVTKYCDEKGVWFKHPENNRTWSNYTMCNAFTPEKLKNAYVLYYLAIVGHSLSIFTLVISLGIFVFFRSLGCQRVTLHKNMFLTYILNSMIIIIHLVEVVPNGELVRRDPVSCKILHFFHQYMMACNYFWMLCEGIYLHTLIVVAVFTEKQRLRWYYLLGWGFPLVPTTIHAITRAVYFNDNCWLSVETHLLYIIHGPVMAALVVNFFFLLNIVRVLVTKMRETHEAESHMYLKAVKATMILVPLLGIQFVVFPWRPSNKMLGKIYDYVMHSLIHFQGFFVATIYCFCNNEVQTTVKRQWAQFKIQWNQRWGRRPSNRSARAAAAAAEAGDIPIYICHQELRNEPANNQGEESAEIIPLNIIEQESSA
Put plainly: IC50 at hCTR divided by IC50 at hAmylin-R (SPA competition assays V and VII). As to the method:
The resulting pellet was resuspended, homogenized and centrifuged (20.000 rpm, 15 min) in a buffer containing 20 mM Na-HEPES and 0.1 mM EDTA (pH 7.4, buffer 2). The resulting pellet was resuspended in buffer 2 and protein concentration was measured (BCA protein Assay, Pierce). The homogenate was kept cold during the whole procedure. The membranes were kept at −80° C. until use. The assay was performed in a 384 well Optiplate (PerkinElmer) in a total volume of 40 ul. Membranes were mixed with SPA beads. Final concentration of membranes 35 ng/μL final and SPA beads was 0.05 mg/well. Test-compounds were dissolved in DMSO and further diluted in assay buffer (50 mM Hepes, pH 7.4, 1 mM CaCl2, 5 mM MgCl₂, 0.1% OA and 0.02% Tween20). […] The final mixture was incubated with shaking at 400 rpm for 120 min at 25° C. prior to centrifugation (1500 rpm, 10 min). Samples were analyzed on TopCounter™ (Packard). The IC₅₀ was calculated using (one site binding competition analysis) GraphPad Prism5 as a measure of receptor affinity.
Membranes were prepared in the following way; the cells were rinsed with PBS and incubated with Versene for approximately 5 min before harvesting. The cells were flushed with PBS and the cell-suspension was centrifuged for 5 min at 1000 rpm. Cells were homogenized (Ultrathurrax) in a buffer containing 20 mM Na-HEPES and 10 mM EDTA (pH 7.4) and centrifuged at 20.000 rpm for 15 min. The resulting pellet was resuspended, homogenized and centrifuged (20.000 rpm, 15 min) in a buffer containing 20 mM Na-HEPES and 0.1 mM EDTA (pH 7.4, buffer 2). The resulting pellet was resuspended in buffer 2 and protein concentration was measured (BCA protein Assay, Pierce). The homogenate was kept cold during the whole procedure. The membranes were kept at −80° C. until use. Assay was performed in a 384 well Optiplate (PerkinElmer) in a total volume of 40 ul. Membranes were mixed with SPA beads.

Experiment [2] addresses T1, human calcitonin receptor. Put plainly: SPA competition vs 125I-calcitonin, membranes of BHK cells with human calcitonin receptor (Assay VII). The protocol: Membranes were prepared in the following way; the cells were rinsed with PBS and incubated with Versene for approximately 5 min before harvesting. The cells were flushed with PBS and the cell-suspension was centrifuged for 5 min at 1000 rpm. Cells were homogenized (Ultrathurrax) in a buffer containing 20 mM Na-HEPES and 10 mM EDTA (pH 7.4) and centrifuged at 20.000 rpm for 15 min. The resulting pellet was resuspended, homogenized and centrifuged (20.000 rpm, 15 min) in a buffer containing 20 mM Na-HEPES and 0.1 mM EDTA (pH 7.4, buffer 2). The resulting pellet was resuspended in buffer 2 and protein concentration was measured (BCA protein Assay, Pierce). The homogenate was kept cold during the whole procedure. The membranes were kept at −80° C. until use. Assay was performed in a 384 well Optiplate (PerkinElmer) in a total volume of 40 ul. Membranes were mixed with SPA beads. Final concentration of membranes 35 ng/μL final and Final concentration of SPA beads was 0.05 mg/well. Test-compounds were dissolved in DMSO and further diluted in assay buffer (50 mM Hepes, pH 7.4, 1 mM CaCl2, 5 mM MgCl₂, 0.1% OA and 0.02% Tween20). […] The final mixture was incubated for 120 min with shaking at 400 rpm at 25° C. prior to centrifugation (1500 rpm, 10 min). Samples were analyzed on TopCounter™ (Packard). The […] was calculated using (one site binding competition analysis) GraphPad Prism5 as a measure of receptor affinity.

B1: N^ε1-[2-[2-[2-[[2-[2-[2-[[(4S)-4-carboxy-4-(19-carboxynonadecanoylamino)butanoyl]amino]ethoxy]ethoxy]acetyl]amino]ethoxy]ethoxy]acetyl]-[Arg17,Pro21,Pro27,Pro34 … (peptide)
peptide: K([AEEA-AEEA-γGlu-C20 diacid])CNTATCATQRLANFLRHSSPNFGAIPSSTNVGPNTY-NH2
modifications: disulfide 2-7; N-terminus assumed
SMILES: CC[C@H](C)[C@H](NC(=O)[C@H](C)NC(=O)CNC(=O)[C@H](Cc1ccccc1)NC(=O)[C@H](CC(N)=O)NC(=O)[C@@H]1CCCN1C(=O)[C@H](CO)NC(=O)[C@H](CO)NC(=O)[C@H](Cc1c[nH]cn1)NC(=O)[C@H](CCCNC(=N)N)NC(=O)[C@H](CC(C)C)NC(=O)[C@H](Cc1ccccc1)NC(=O)[C@H](CC(N)=O)NC(=O)[C@H](C)NC(=O)[C@H](CC(C)C)NC(=O)[C@H](CCCNC(=N)N)NC(=O)[C@H](CCC(N)=O)NC(=O)[C@@H](NC(=O)[C@H](C)NC(=O)[C@@H]1CSSC[C@H](NC(=O)[C@@H](N)CCCCNC(=O)COCCOCCNC(=O)COCCOCCNC(=O)CC[C@H](NC(=O)CCCCCCCCCCCCCCCCCCC(=O)O)C(=O)O)C(=O)N[C@@H](CC(N)=O)C(=O)N[C@@H]([C@@H](C)O)C(=O)N[C@@H](C)C(=O)N[C@@H]([C@@H](C)O)C(=O)N1)[C@@H](C)O)C(=O)N1CCC[C@H]1C(=O)N[C@@H](CO)C(=O)N[C@@H](CO)C(=O)N[C@H](C(=O)N[C@@H](CC(N)=O)C(=O)N[C@H](C(=O)NCC(=O)N1CCC[C@H]1C(=O)N[C@@H](CC(N)=O)C(=O)N[C@H](C(=O)N[C@@H](Cc1ccc(O)cc1)C(N)=O)[C@@H](C)O)C(C)C)[C@@H](C)O
notes: also called compound 98
For the molecule B1, the “Ratio hCT/hAmylin binding” value in experiment [1] was found to be 74.1. In addition, the IC50 (commonly the concentration needed to halve the response being measured) in experiment [2] stood at 6.74 nM.

B2: N^ε1-[2-[2-[2-[[(4S)-4-carboxy-4-(19-carboxynonadecanoylamino)butanoyl]amino]ethoxy]ethoxy]acetyl]-[Arg14,Arg17,Pro21,Pro27]-h-amylin (peptide)
peptide: K([AEEA-γGlu-C20 diacid])CNTATCATQRLARFLRHSSPNFGAIPSSTNVGSNTY-NH2
modifications: disulfide 2-7; N-terminus assumed
SMILES: CC[C@H](C)[C@H](NC(=O)[C@H](C)NC(=O)CNC(=O)[C@H](Cc1ccccc1)NC(=O)[C@H](CC(N)=O)NC(=O)[C@@H]1CCCN1C(=O)[C@H](CO)NC(=O)[C@H](CO)NC(=O)[C@H](Cc1c[nH]cn1)NC(=O)[C@H](CCCNC(=N)N)NC(=O)[C@H](CC(C)C)NC(=O)[C@H](Cc1ccccc1)NC(=O)[C@H](CCCNC(=N)N)NC(=O)[C@H](C)NC(=O)[C@H](CC(C)C)NC(=O)[C@H](CCCNC(=N)N)NC(=O)[C@H](CCC(N)=O)NC(=O)[C@@H](NC(=O)[C@H](C)NC(=O)[C@@H]1CSSC[C@H](NC(=O)[C@@H](N)CCCCNC(=O)COCCOCCNC(=O)CC[C@H](NC(=O)CCCCCCCCCCCCCCCCCCC(=O)O)C(=O)O)C(=O)N[C@@H](CC(N)=O)C(=O)N[C@@H]([C@@H](C)O)C(=O)N[C@@H](C)C(=O)N[C@@H]([C@@H](C)O)C(=O)N1)[C@@H](C)O)C(=O)N1CCC[C@H]1C(=O)N[C@@H](CO)C(=O)N[C@@H](CO)C(=O)N[C@H](C(=O)N[C@@H](CC(N)=O)C(=O)N[C@H](C(=O)NCC(=O)N[C@@H](CO)C(=O)N[C@@H](CC(N)=O)C(=O)N[C@H](C(=O)N[C@@H](Cc1ccc(O)cc1)C(N)=O)[C@@H](C)O)C(C)C)[C@@H](C)O
notes: also called compound 82
As for B2, the “Ratio hCT/hAmylin binding” value in experiment [1] came to 140. Moreover, in experiment [2], the IC50 was 88.8 nM.

B3: N^ε1-[2-[2-[2-[[(4S)-4-carboxy-4-(19-carboxynonadecanoylamino)butanoyl]amino]ethoxy]ethoxy]acetyl]-[Arg14,Arg17,Pro21,Pro27,Pro31]-h-amylin (peptide)
peptide: K([AEEA-γGlu-C20 diacid])CNTATCATQRLARFLRHSSPNFGAIPSSTPVGSNTY-NH2
modifications: disulfide 2-7; N-terminus assumed
SMILES: CC[C@H](C)[C@H](NC(=O)[C@H](C)NC(=O)CNC(=O)[C@H](Cc1ccccc1)NC(=O)[C@H](CC(N)=O)NC(=O)[C@@H]1CCCN1C(=O)[C@H](CO)NC(=O)[C@H](CO)NC(=O)[C@H](Cc1c[nH]cn1)NC(=O)[C@H](CCCNC(=N)N)NC(=O)[C@H](CC(C)C)NC(=O)[C@H](Cc1ccccc1)NC(=O)[C@H](CCCNC(=N)N)NC(=O)[C@H](C)NC(=O)[C@H](CC(C)C)NC(=O)[C@H](CCCNC(=N)N)NC(=O)[C@H](CCC(N)=O)NC(=O)[C@@H](NC(=O)[C@H](C)NC(=O)[C@@H]1CSSC[C@H](NC(=O)[C@@H](N)CCCCNC(=O)COCCOCCNC(=O)CC[C@H](NC(=O)CCCCCCCCCCCCCCCCCCC(=O)O)C(=O)O)C(=O)N[C@@H](CC(N)=O)C(=O)N[C@@H]([C@@H](C)O)C(=O)N[C@@H](C)C(=O)N[C@@H]([C@@H](C)O)C(=O)N1)[C@@H](C)O)C(=O)N1CCC[C@H]1C(=O)N[C@@H](CO)C(=O)N[C@@H](CO)C(=O)N[C@H](C(=O)N1CCC[C@H]1C(=O)N[C@H](C(=O)NCC(=O)N[C@@H](CO)C(=O)N[C@@H](CC(N)=O)C(=O)N[C@H](C(=O)N[C@@H](Cc1ccc(O)cc1)C(N)=O)[C@@H](C)O)C(C)C)[C@@H](C)O
notes: also called compound 64
B3: the “Ratio hCT/hAmylin binding” value in experiment [1] was 126. Also, the IC50 in experiment [2] came out at 56 nM.

B4: N^ε1-[2-[2-[2-[[(4S)-4-carboxy-4-(19-carboxynonadecanoylamino)butanoyl]amino]ethoxy]ethoxy]acetyl]-[Ala14,Arg17,Pro21,Pro27,Pro31]-h-amylin (peptide)
peptide: K([AEEA-γGlu-C20 diacid])CNTATCATQRLAAFLRHSSPNFGAIPSSTPVGSNTY-NH2
modifications: disulfide 2-7; N-terminus assumed
SMILES: CC[C@H](C)[C@H](NC(=O)[C@H](C)NC(=O)CNC(=O)[C@H](Cc1ccccc1)NC(=O)[C@H](CC(N)=O)NC(=O)[C@@H]1CCCN1C(=O)[C@H](CO)NC(=O)[C@H](CO)NC(=O)[C@H](Cc1c[nH]cn1)NC(=O)[C@H](CCCNC(=N)N)NC(=O)[C@H](CC(C)C)NC(=O)[C@H](Cc1ccccc1)NC(=O)[C@H](C)NC(=O)[C@H](C)NC(=O)[C@H](CC(C)C)NC(=O)[C@H](CCCNC(=N)N)NC(=O)[C@H](CCC(N)=O)NC(=O)[C@@H](NC(=O)[C@H](C)NC(=O)[C@@H]1CSSC[C@H](NC(=O)[C@@H](N)CCCCNC(=O)COCCOCCNC(=O)CC[C@H](NC(=O)CCCCCCCCCCCCCCCCCCC(=O)O)C(=O)O)C(=O)N[C@@H](CC(N)=O)C(=O)N[C@@H]([C@@H](C)O)C(=O)N[C@@H](C)C(=O)N[C@@H]([C@@H](C)O)C(=O)N1)[C@@H](C)O)C(=O)N1CCC[C@H]1C(=O)N[C@@H](CO)C(=O)N[C@@H](CO)C(=O)N[C@H](C(=O)N1CCC[C@H]1C(=O)N[C@H](C(=O)NCC(=O)N[C@@H](CO)C(=O)N[C@@H](CC(N)=O)C(=O)N[C@H](C(=O)N[C@@H](Cc1ccc(O)cc1)C(N)=O)[C@@H](C)O)C(C)C)[C@@H](C)O
notes: also called compound 72
For B4, in experiment [1], the “Ratio hCT/hAmylin binding” value came out at 247. The IC50 in experiment [2] came to 42.4 nM.
